± gives the standard deviation.
Assay: protein stability index of a GFP-peptide fusion (GPS, HEK-293T) (PSI 1-6); higher = more stable
[1] = treatment: DMSO, c terminus: a fixed tail appended
[2] = treatment: MLN4924 1 uM, 8 h, c terminus: a fixed tail appended
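Note: 24-mer peptide tiles fused after GFP, lentivirally expressed, FACS-sorted into six equal bins by GFP/DsRed ratio, decoded by Illumina sequencing, PSI is the read-weighted mean bin number.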

Row | Sequence | protein stability index [1] | protein stability index [2] | protein stability index (treatment: DMSO, c terminus: native) | protein stability index (treatment: MLN4924 1 uM, 8 h, c terminus: native)
1 | SLLRPLNSLAALDLSGIQTSDAAF [ZER1] | 2.87 ± 0.15 | 2.9 ± 0.24 |  | 
2 | YERTLGQYQYERYGAVELSGAGRR [IRX6] | 3.75 ± 0.36 | 3.81 ± 0.3 |  | 
3 | SCRELLRIADKFTQHNFQEVMESE [KLHL20] | 2.17 ± 0.14 | 2.19 ± 0.06 |  | 
4 | DDAGTSGGPSSPPSDPPAMSPGPL [C2CD2L] | 5.38 ± 0.38 | 5.37 ± 0.32 |  | 
5 | KLREFLRVEEQAILDAMAEETRQK [TRIM35] | 2.85 ± 0.53 | 3.34 ± 0.18 |  | 
6 | MYYRGSAAAIIVYDITKEETFSTL [RAB22A] | 2.75 ± 0.69 | 2.72 ± 0.84 |  | 
7 | KYLTYDQLRKQKKKTGKSSTTALG [ELOA2] | 3.35 ± 0.083 | 3.79 ± 0.34 |  | 
8 | AAASAKDIYYNNMEEVCGGEKPYL [ATL3] | 4.21 ± 0.25 | 4.01 ± 0.069 |  | 
9 | QKYDPDKDEWHKVFDLPESLGGIR [KLHL13] | 3.55 ± 0.23 | 3.93 ± 0.29 |  | 
10 | SAPHLENSGHTIFNDPFFIVETVC [KCNA4] | 2.43 ± 0.23 | 2.46 ± 0.38 |  | 
11 | KMKYKGQYRPSDLLCPETYVWVPI [ATE1] | 2.01 ± 0.39 | 2.03 ± 0.26 |  | 
12 | APEFIKVRENLRRIATLTSEEREL [FAM107A] | 4.48 ± 0.31 | 4.62 ± 0.16 |  | 
13 | LWDTSGQGRFCTIFRSYSRGAQGV [RAB40A] | 2.24 ± 0.41 | 2.51 ± 0.36 |  | 
14 | GDLAYRRQEYQKALQEYSSISEKL [C8orf76] | 4.14 ± 0.25 | 4.16 ± 0.2 |  | 
15 | AGGAGGGVTEEQEGFADGFVKALD [JUNB] | 5.32 ± 0.17 | 5.35 ± 0.085 |  | 
16 | FEKWEQETAAGKGKGEARARLKRS [SMTNL2] | 4.87 ± 0.15 | 5.07 ± 0.21 |  | 
17 | RENSKPRAILKPRKVCVGGKRRKD [PPP2R2B] | 4.73 ± 0.35 | 4.89 ± 0.34 |  | 
18 | ELLTGQPLWPGKSDVDQLYLIIRT [CDKL4] | 2.31 ± 0.69 | 2.24 ± 0.43 |  | 
19 | HNRKKHLNGLQHLKAKKVWYDMFR [ZMAT5] | 2.22 ± 0.44 | 2.38 ± 0.27 |  | 
20 | KSPPQLRQFLPEEFMKTLEKTGPQ [DENND6A] | 4.63 ± 0.3 | 4.43 ± 0.32 |  | 
21 | YGMQTQNYPKGGLLDSMCPASTPS [ETS2] | 3.79 ± 0.19 | 3.64 ± 0.18 |  | 
22 | SLDFTKKILHTAWHPAENIIAIAA [PPP2R2C] | 2.58 ± 0.59 | 2.29 ± 0.31 |  | 
23 | NQVVSSTNGELNTDDPTAGRSNAP [CSNK1G3] | 5.41 ± 0.28 | 5.5 ± 0.17 |  | 

Row | Sequence | protein stability index [1] | protein stability index [2] | protein stability index (treatment: DMSO, c terminus: native) | protein stability index (treatment: MLN4924 1 uM, 8 h, c terminus: native)
24 | DHARGKSQVALKIIRNVGKYREAA [CLK3] | 3.15 ± 0.18 | 3.33 ± 0.19 |  | 
25 | PFREQSFLCAAGDAGEESRVQVLK [TIAF1] | 4.54 ± 0.25 | 4.6 ± 0.16 |  | 
26 | SGNDPFAPSEGSAEAAPELDLFAM [SNAP91] | 4.83 ± 0.2 | 4.89 ± 0.23 |  | 
27 | WMQANYDPLSDSDSMTSQAKPEAL [ELOA2] | 4.72 ± 0.12 | 4.54 ± 0.26 |  | 
28 | RVSNPGRLAELLLLETDAGPAASE [GADD45A] | 4.46 ± 0.28 | 4.28 ± 0.26 |  | 
29 | PHTPGKPTSSCTSRSAPPGLQAPP [FOXJ1] | 4.42 ± 0.19 | 4.86 ± 0.18 |  | 
30 | GRTHQWKPLYPDDYVHISSKPCDL [ADAMTSL2] | 3.25 ± 0.3 | 3.42 ± 0.093 |  | 
31 | AANKGEEKKDDENIPMETEETHLE [SMARCE1] | 5.64 ± 0.33 | 5.34 ± 0.42 |  | 
32 | IHDSEFKEYTTRTQAPPSVILGVT [DENND6A] | 3.22 ± 0.17 | 3.29 ± 0.31 |  | 
33 | LYLFGGHHSRGNTNKFYMLDSRST [KLHDC2] | 2.16 ± 0.12 | 2.17 ± 0.18 |  | 
34 | AHLPKAQLSGYAVEATRNQSQLQR [FBF1] | 4.21 ± 0.044 | 4.08 ± 0.2 |  | 
35 | FIYMVLSLFIALITGAYDTIKHPG [MCOLN1] | 2.94 ± 0.21 | 2.85 ± 0.28 |  | 
36 | FRQLCYQETPGPREALTRLQELCY [ZSCAN9] | 2.48 ± 0.14 | 2.62 ± 0.25 |  | 
37 | QTWVRDHHPENGEEAVTVLEDLES [ZNF24] | 5.34 ± 0.21 | 5.43 ± 0.17 |  | 
38 | YRQKLLMFLEISSYYDPGRLICDF [VPS39] | 2.92 ± 0.55 | 2.7 ± 0.56 |  | 
39 | GALPVGSNLTSNLASLVSQGMIQL [RETREG3] | 2.21 ± 0.24 | 2.46 ± 0.16 |  | 
40 | LFGTIAYLPPERIREKSRLFDTKH [RIPK4] | 2.57 ± 0.52 | 2.57 ± 0.27 |  | 
41 | SEAAIGGAMLGQTTSEEAVGGATP [HDAC6] | 5.31 ± 0.26 | 5.4 ± 0.17 |  | 
42 | TSSTFGLQDGNLRAPHKESTLPRS [CHCHD6] | 4.42 ± 0.34 | 4.61 ± 0.14 |  | 
43 | DIYYNNMEEVCGGEKPYLSPDILE [ATL3] | 3.72 ± 0.57 | 3.59 ± 0.27 |  | 
44 | FERLCLTWMFFFMMCVAERTYKQR [PHTF1] | 2.82 ± 0.54 | 3.3 ± 0.49 |  | 
45 | RQNVPRKVPNHYIAIPEWFLSENA [CPXM2] | 2.82 ± 0.23 | 3.05 ± 0.5 |  | 
46 | VMVRWNKSLEWSPWNCILLTKDEA [IQUB] | 2.57 ± 1 | 2.25 ± 0.35 |  | 

Row | Sequence | protein stability index [1] | protein stability index [2] | protein stability index (treatment: DMSO, c terminus: native) | protein stability index (treatment: MLN4924 1 uM, 8 h, c terminus: native)
47 | HKVKAEEEKKAKVAPPAKQAQQKK [BRD3] | 5.5 ± 0.22 | 5.5 ± 0.29 |  | 
48 | ILEDMRCQYEALVENNRRDVEAWF [KRT36] | 2.49 ± 0.19 | 2.84 ± 0.45 |  | 
49 | LHLLYLLEKVECTPSQEHLKHQTV [FEM1A] | 2.29 ± 0.43 | 2.23 ± 0.26 |  | 
50 | VTETEETQEKKAESKEPIEEEPTG [SDE2] | 5.68 ± 0.19 | 5.85 ± 0.11 |  | 
51 | CAFVGALGGAAFLGTAIFIEADRR [SPNS1] | 2.8 ± 0.78 | 2.36 ± 0.67 |  | 
52 | VVGFDLELGQAVEVIYPQHSKLTD [DENND6A] | 2.03 ± 0.097 | 2.62 ± 0.3 |  | 
53 | EDVPLAAKLVDLPCVIESLRTLDK [TAF7L] | 3.64 ± 0.29 | 3.48 ± 0.21 |  | 
54 | ACGGHVELAALLIERGASLEEVND [ANKRD17] | 3.91 ± 0.29 | 3.73 ± 0.22 |  | 
55 | IGLWGLAVKGSLGSDLGGPLPTDP [TSPAN10] | 2.32 ± 0.27 | 2.39 ± 0.29 |  | 
56 | TCFVRDGKTYCKRDYVRLFGIKCA [ISL2] | 2.46 ± 0.18 | 2.17 ± 0.19 |  | 
57 | FEFEVRVCDSCHEAITDEERAPTA [WDFY2] | 3.48 ± 0.33 | 3.57 ± 0.086 |  | 
58 | IHSIALSTFASLIGPFGGFFASGF [CDS2] | 3.12 ± 0.2 | 2.99 ± 0.16 |  | 
59 | IERANNVKYGLAATVWSSNVGRVH [ALDH8A1] | 2.66 ± 0.29 | 2.8 ± 0.25 |  | 
60 | DQGGPVEILPFLYLGSAYHASKCE [DUSP5] | 2.34 ± 0.27 | 2.43 ± 0.14 |  | 
61 | LDKNKIPYKGFIPEDLEAFIELH [FEM1A] |  |  | 3.1 ± 0.29 | 3.06 ± 0.27
62 | VKRKMDGREYPDAQGFAADVRLMF [BRD3] | 2.44 ± 0.043 | 2.58 ± 0.18 |  | 
63 | VAARTPAVEGLTEAEEEELRAELT [TPD52L2] | 5.56 ± 0.23 | 5.26 ± 0.26 |  | 
64 | PKDIYSSFGFPRTVKHIDAALSEE [MMP1] | 3.9 ± 0.29 | 4.04 ± 0.23 |  | 
65 | EVYQEVQAMFDTLGIPKSTTSDIP [FAM98B] | 3.09 ± 0.31 | 3.5 ± 0.49 |  | 
66 | LAEGVSASLHTLLGDPCPMLESPG [HDAC6] | 4 ± 0.28 | 4.17 ± 0.29 |  | 
67 | GRHLELANQKLSEKLAAGALPHIN [CCDC3] | 3.46 ± 0.42 | 3.79 ± 0.36 |  | 
68 | PKVEYVWRNIILMSLLHLGALYGI [SCD] | 3.26 ± 0.5 | 3.48 ± 0.06 |  | 
69 | RVLRQPRPALAQQAQGARAGGSAR [GMCL1] | 5.03 ± 0.23 | 4.93 ± 0.19 |  | 

Row | Sequence | protein stability index [1] | protein stability index [2] | protein stability index (treatment: DMSO, c terminus: native) | protein stability index (treatment: MLN4924 1 uM, 8 h, c terminus: native)
70 | VLEENGEKNQVQLGKLEATIKSLS [SASS6] | 3.98 ± 0.43 | 3.79 ± 0.16 |  | 
71 | RRHPGLGKAFPSGCSAVSEPASES [TRAF3IP2] | 4.31 ± 0.18 | 4.3 ± 0.41 |  | 
72 | DDVEVLTLKKFKGDLAYRRQEYQK [C8orf76] | 3.78 ± 0.18 | 3.92 ± 0.31 |  | 
73 | SATNVTCYYQPAPYVSDGNFSNYY [TENT5C] | 2.05 ± 0.29 | 2.14 ± 0.28 |  | 
74 | DVLKYSYVRLVCKDVRAPSRPAVG [ZSWIM9] | 2.25 ± 0.26 | 1.83 ± 0.22 |  | 
75 | NEWRMVASMSKRRCGVGVSVLDDL [KLHL20] | 2.27 ± 0.52 | 2.25 ± 0.34 |  | 
76 | RTSSGNVWVTHEEMETLETSTKTD [PPFIA4] | 5.24 ± 0.35 | 4.99 ± 0.06 |  | 
77 | QFTSSSSMKGSCGIGGGIGGGSSR [KRT16] | 3.29 ± 0.26 | 3.48 ± 0.32 |  | 
78 | SELRTKVQEQQKQLQDQDQKLLEQ [FBXO28] | 5.5 ± 0.19 | 5.481 ± 0.034 |  | 
79 | FLDIPRSRLVKYPLLLKEILKHTP [NET1] | 1.99 ± 0.55 | 2.34 ± 0.18 |  | 
80 | EPPQDSHSRKTVLIKTIETRNGEV [PRPH] | 4.67 ± 0.28 | 4.79 ± 0.4 |  | 
81 | NPFKERICRVFSTSPAKDSLSFED [CIB1] | 2.77 ± 0.21 | 2.75 ± 0.2 |  | 
82 | VVPPTPPVVKKKGVKRKADTTTPT [BRD3] | 4.9 ± 0.39 | 4.82 ± 0.31 |  | 
83 | CLMLLMGTVHCQIVSTQITRPSGN [PHTF1] | 3.12 ± 0.47 | 2.84 ± 0.47 |  | 
84 | YDQLKAFLCGRALTSDLYAPMVAG [SLC25A39] | 2.61 ± 0.2 | 2.04 ± 0.15 |  | 
85 | LERKFRCQQEQLFQTRQEMTSMSA [LRRC45] | 3.22 ± 0.29 | 3.21 ± 0.24 |  | 
86 | VSFLRSGTKLIFRRRPRQKEAGLS [C2CD2L] | 2.75 ± 0.74 | 3.1 ± 0.24 |  | 
87 | PPLLGTFPRDHTSLALVQNGDVSA [ANKRD40] | 4.57 ± 0.21 | 4.4 ± 0.41 |  | 
88 | TQKLSHSTKPSGSPLEEKHDQCKC [MATN2] | 5.15 ± 0.38 | 4.94 ± 0.29 |  | 
89 | PKKPIGGNIIAHASTTRLYLRKGR [RAD51] | 3.79 ± 0.29 | 3.74 ± 0.17 |  | 

From the supplement of paper PMC10567573
